{"source": "paper PMC5829826", "experiment_in_all_cases": "EMSA", "conditions_in_all_cases": "60 mM HEPES-KOH pH 7.5, 25 mM MgCl2, 5 mM EDTA, 300 mM KCl, 50 µg/ml BSA, 3 mM DTT, 24 ng labeled DNA, 20 min, room temperature", "key": {"[1]": {"biological_target": "T1, Cra Y47E Y47E (Escherichia coli EHEC TUV93-0) (UniProt P0ACP1)", "T1 sequence": "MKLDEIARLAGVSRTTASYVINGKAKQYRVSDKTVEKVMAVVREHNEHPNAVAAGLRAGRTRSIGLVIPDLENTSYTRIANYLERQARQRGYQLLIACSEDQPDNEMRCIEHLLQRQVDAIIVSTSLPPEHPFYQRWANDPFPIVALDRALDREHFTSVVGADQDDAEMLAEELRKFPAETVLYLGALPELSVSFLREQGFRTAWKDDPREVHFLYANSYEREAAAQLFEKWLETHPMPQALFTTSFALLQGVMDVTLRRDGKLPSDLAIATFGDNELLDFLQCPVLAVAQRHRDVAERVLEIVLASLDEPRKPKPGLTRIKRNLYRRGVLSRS"}, "[2]": {"biological_target": "T2, Cra Y47F Y47F (Escherichia coli EHEC TUV93-0) (UniProt P0ACP1)", "T2 sequence": "T1 sequence with E47F"}, "[3]": {"biological_target": "T3, Cra WT (Escherichia coli EHEC TUV93-0) (UniProt P0ACP1)", "T3 sequence": "T1 sequence with E47Y"}, "LacI WT, ORF:a00089fe": {"tested_on": "LacI WT, ORF:a00089fe"}, "[4]": {"tested_on": "LacI Y47E Y47E, ORF:a00089fe"}, "[5]": {"tested_on": "LacI Y47F Y47F, ORF:a00089fe"}, "[6]": {"biological_target": "T4, PurR Y45E Y45E (Escherichia coli (TUV93-0?)) (UniProt P0ACP7)", "T4 sequence": "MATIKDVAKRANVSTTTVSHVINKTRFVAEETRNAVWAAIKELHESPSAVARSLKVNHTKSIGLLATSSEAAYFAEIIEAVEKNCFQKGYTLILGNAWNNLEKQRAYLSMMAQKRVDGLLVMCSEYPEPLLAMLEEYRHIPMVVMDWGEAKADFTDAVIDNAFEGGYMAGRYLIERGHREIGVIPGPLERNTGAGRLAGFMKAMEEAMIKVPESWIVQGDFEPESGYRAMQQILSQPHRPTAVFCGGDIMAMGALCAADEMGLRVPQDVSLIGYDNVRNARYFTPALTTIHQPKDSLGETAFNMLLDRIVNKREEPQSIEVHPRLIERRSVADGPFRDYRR"}, "[7]": {"biological_target": "T5, PurR WT (Escherichia coli (TUV93-0?)) (UniProt P0ACP7)", "T5 sequence": "T4 sequence with E45Y"}, "[8]": {"biological_target": "T6, PurR Y45F Y45F (Escherichia coli (TUV93-0?)) (UniProt P0ACP7)", "T6 sequence": "T4 sequence with E45F"}, "[9]": {"tested_on": "Cra Y47F (Escherichia coli EHEC TUV93-0)"}, "[10]": {"tested_on": "Cra WT (Escherichia coli EHEC TUV93-0)"}}, "note": "Positions count from the first letter of the chain named."}
{"substance": "CACCTCCTAACTACTTAAAATTGCTATCATTCGTTATTGTTATCTAGTTGTGCAAAACATGCTAATGTAGCCACCAAATCATACTACAATTTATTAACTGTTATCTATAATGGCGAAAAGCGATGCTGAAAGGTGTCAGCTTTGCAAAAATTTGATTTGGATCACGTAATCAGTACCCAGAAGTGAGTAATCTTGCTTACGCCACTTGGAAGTGACGCATTAGAGATAATAACTCTAATGTTTAAACTCTTTTAGTAAATCACAGTGAGTGTGTGCGC (double strand) [adhE regulatory fragment]", "values": [{"measurement": "binding", "setting": "[1]", "result": "no binding"}, {"measurement": "binding", "setting": "[2]", "result": "binds"}, {"measurement": "binding", "setting": "[3]", "result": "binds"}]}
{"substance": "CATGTGCTGCGACTGCGTTCGCTTACCCCAATCACTTACTTATGTAAGCTCCTGGGGATTCACTCGCTTGCCGCCTTCCTGTAACTCGAATTAAGTAGAGTATAGTGAAACGGTTCAGCTTGGTTTTTATTCTGTTTTATTTGTTTATGCAATGAGATCTATCTTATAAAGAGAAACGCTTAACTAAATGGAAATGC (double strand) [LEE1 (ler) regulatory fragment]", "values": [{"measurement": "binding", "setting": "[1]", "result": "no binding"}, {"measurement": "Kd", "setting": "[2]", "result": 130, "unit": "nM"}, {"measurement": "binding", "setting": "[2]", "result": "binds"}, {"measurement": "Kd", "setting": "[3]", "result": 111, "unit": "nM"}, {"measurement": "binding", "setting": "[3]", "result": "binds"}]}
{"substance": "CGACGGCCAGTGAATCTGTAATCATAGTCATAGCTGTATCCTGTGTGAAATTGTTATCCGCTCACAATTTCACACAACATACGAGCCGGACGCATAGAGTGTAAAGCGTGGGGTGCCTAATGAGTGAGCTGACTCACATTAATTGCGTTGCGCTCACTGCCCGCTTTCCAGTCGGGAAACTTGTCGTGCCAGCTGCATTAATGAATCG (double strand) [lacO1O3 fragment]", "values": [{"measurement": "binding", "setting": "LacI WT, ORF:a00089fe", "result": "binds"}, {"measurement": "binding", "setting": "[4]", "result": "no binding"}, {"measurement": "binding", "setting": "[5]", "result": "binds"}]}
{"substance": "CGTAATCAATCCAGACCATATGTGTCCCACGATTTTACGCCCTGTCATCCTGTTCGGGGGCGCATTCTAACAGAAAAAGAAAACGTTTGCGTAGGGATTTCCTTCCCGCGCATCAATAAAAATGGCGCTGAAAAAATATTCAACGCCATCGACTTTTTATGCCTTTGCGGCATCGGACAATGCGTGTCGGATGCGGCGTAAACGTCTTATCCGACCTACGGTTCTACC (double strand) [purF-cvpA regulatory fragment]", "values": [{"measurement": "binding", "setting": "[6]", "result": "no binding"}, {"measurement": "binding", "setting": "[7]", "result": "binds"}, {"measurement": "binding", "setting": "[8]", "result": "binds"}]}
{"substance": "LEE1 (ler) regulatory fragment", "values": [{"measurement": "Kd", "setting": "[9]", "result": 130, "unit": "nM"}, {"measurement": "binding signal (% reduction of binding vs no metabolite)", "setting": "[9]", "result": 33}, {"measurement": "Kd", "setting": "[10]", "result": 111, "unit": "nM"}, {"measurement": "binding signal (% reduction of binding vs no metabolite)", "setting": "[10]", "result": 33}]}
{"substance": "TTTACGGCTTTCCTTGCGTGCTGAAACAGAAGTATTATGCTTTCTTGAAACGTTTCAGCGCGATCTTGTCTTTAACCCTAAGCCAGGTTGGCGCTTTTTTTCTCATAGAAGCTGAATCGTTTCAATTCAGCAAGAGAGGAGAACTATGTTCCAGTTATCCGTACAGGACATCCATCCGGGCGAAAAGGCCGGAGACAAAGAAGAGGCGATTCGCCAGGTCGCTGCGGCGCTGGTGCAGGCCGGTAATGTAGCAGAAGGCTACGTCAATGGCATGCTG (double strand) [fruB regulatory fragment]", "values": [{"measurement": "binding", "setting": "[1]", "result": "no binding"}, {"measurement": "binding", "setting": "[2]", "result": "binds"}, {"measurement": "binding", "setting": "[3]", "result": "binds"}]}
